# Laboratory results from patent publication WO2012132067A1 (dated 2012).
# Numbering of substitutions follows the chain as printed. Names and notes keep the numbering of the source.
# B1: Fv4-IgG1-F157 (antibody)
# heavy: QVQLQESGPGLVKPSETLSLTCAVSGHSISHDHAWSWVRQPPGEGLEWIGFISYSGITNYNPSLQGRVTISRDNSKNTLYLQMNSLRAEDTAVYYCARSLARTTAMDYWGEGTLVTVSSASTKGPSVFPLAPSSKSTSGGTAALGCLVKDYFPEPVTVSWNSGALTSGVHTFPAVLQSSGLYSLSSVVTVPSSSLGTQTYICNVNHKPSNTKVDKKVEPKSCDKTHTCPPCPAPELLGGPSVFLFPPKPKDTLMISRTAEVTCVVVDVSHEDPEVKFNWYVDGVEVHNAKTKPREEQYNSTYRVVSVLTPLHQDWLNGKEYKCKVSNKALPAPIEKTISKAKGQPREPQVYTLPPSRDELTKNQVSLTCLVKGFYPSDIAVEWESNGQPENNYKTTPPVLDSDGSFFLYSKLTVDKSRWQQGNVFSCSVLHEALHYHYTQKSLSLSP
# light: DIQMTQSPSSLSASVGDSVTITCQASTDISSHLNWYQQKPGKAPELLIYYGSHLLSGVPSRFSGSGSGTDFTFTISSLEAEDAATYYCGQGNRLPYTFGQGTKVEIERTVAAPSVFIFPPSDEQLKSGTASVVCLLNNFYPREAKVQWKVDNALQSGNSQESVTEQDSKDSTYSLSSTLTLSKADYEKHKVYACEVTHQGLSSPVTKSFNRGEC
# notes: VH3-IgG1-F157 with VL3-CK; copies: 2 + 2
# B2: Fv4-IgG1-F20 (antibody)
# heavy: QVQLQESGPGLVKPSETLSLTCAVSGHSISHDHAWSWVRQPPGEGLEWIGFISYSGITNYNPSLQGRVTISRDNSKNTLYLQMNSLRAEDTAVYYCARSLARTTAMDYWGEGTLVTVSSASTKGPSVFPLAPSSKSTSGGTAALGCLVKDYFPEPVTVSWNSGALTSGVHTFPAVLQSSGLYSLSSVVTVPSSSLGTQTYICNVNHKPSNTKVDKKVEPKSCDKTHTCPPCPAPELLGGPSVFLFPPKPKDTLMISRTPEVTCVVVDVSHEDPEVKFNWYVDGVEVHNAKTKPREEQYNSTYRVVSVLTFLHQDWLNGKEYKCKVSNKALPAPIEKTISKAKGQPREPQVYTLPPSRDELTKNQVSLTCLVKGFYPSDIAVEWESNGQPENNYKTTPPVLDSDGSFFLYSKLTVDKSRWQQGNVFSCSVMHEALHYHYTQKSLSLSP
# light: B1 light
# notes: VH3-IgG1-F20 with VL3-CK; copies: 2 + 2
# B3: IgG1-v3 (IL6R-G1d_v3/IL6R-L) (antibody)
# heavy: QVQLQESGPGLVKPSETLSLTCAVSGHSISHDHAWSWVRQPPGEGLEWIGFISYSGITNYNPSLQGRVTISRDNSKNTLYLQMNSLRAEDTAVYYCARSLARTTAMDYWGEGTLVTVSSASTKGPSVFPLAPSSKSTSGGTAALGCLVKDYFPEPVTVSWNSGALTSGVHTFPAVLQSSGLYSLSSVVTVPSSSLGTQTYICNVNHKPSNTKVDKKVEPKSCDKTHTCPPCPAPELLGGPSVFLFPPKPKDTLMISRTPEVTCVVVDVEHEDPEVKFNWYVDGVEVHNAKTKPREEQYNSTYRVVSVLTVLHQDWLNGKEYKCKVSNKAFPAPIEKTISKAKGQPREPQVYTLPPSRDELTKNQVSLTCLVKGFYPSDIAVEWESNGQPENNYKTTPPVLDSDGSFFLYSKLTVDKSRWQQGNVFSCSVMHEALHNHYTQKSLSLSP
# light: DIQMTQSPSSLSASVGDRVTITCRASQDISSYLNWYQQKPGKAPKLLIYYTSRLHSGVPSRFSGSGSGTDFTFTISSLQPEDIATYYCQQGNTLPYTFGQGTKVEIK
# notes: IL6R-G1d with S267E/L328F (EU), known mutation used for comparison; copies: 2 + 2
# B4: VH3/L(WT)-IgG1-F652 (antibody)
# heavy: B1 heavy with P240D, M254Y, A259P, P310V, L430M
# light: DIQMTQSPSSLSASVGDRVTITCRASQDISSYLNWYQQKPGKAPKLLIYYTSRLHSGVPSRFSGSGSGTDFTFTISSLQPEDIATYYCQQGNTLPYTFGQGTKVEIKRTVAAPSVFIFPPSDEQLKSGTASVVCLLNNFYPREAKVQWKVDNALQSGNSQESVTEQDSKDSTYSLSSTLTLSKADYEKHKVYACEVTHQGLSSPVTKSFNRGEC
# notes: VH3-IgG1-F11 with P238D (EU); copies: 2 + 2
# B5: 6RL#9-IgG1 (antibody, V domains shown, not shown: a dimerising Fc or GST)
# VH: QVQLVQSGAEVKKPGASVKVSCKASGYTFTSYYMHWVRQAPGQGLEWMGIINPSGGSTSYAQKFQGRVTMTRDTSTSTVYMELSSLRSEDTAVYYCARDDPGGGEYYFDYWGQGTLVTVSS
# VL: QSVLTQPPSVSGAPGQRVTISCTGSRSNMGAGYDVHWYQLLPGAAPKLLISHNTHRPSGVPDRFSGSKSGASASLAITGLQAEDEADYYCQSHDSSLSAVVFGGGTKLTVLS
# notes: Ca-dependent anti-human IL-6 receptor antibody from a naive human phage library; also called 6RL#9 antibody
# B6: FH4-IgG1 (antibody, V domains shown)
# VH: QVQLVQSGAEVKKPGSSVKVSCKASGGTFSSYAISWVRQAPGQGLEWMGGIIPIFGTANYAQKFQGRVTITADESTSTAYMELSSLRSEDTAVYYCARERDYYDSSGYYDAFDIWGQGTMVTVSS
# VL: ETTVTQSPSFLSASVGDRVTITCITTTDIDDDMNWFQQEPGKAPKLLISEGNILRPGVPSRFSSSGYGTDFTLTISKLQPEDFATYYCLQSDNLPFTFGQGTKLEIKR
# notes: Ca-dependent anti-human IL-6 receptor antibody from a naive human phage library
# B7: mPM1-mIgG1-mF3 (antibody)
# heavy: DVQLQESGPVLVKPSQSLSLTCTVTGYSITSDHAWSWIRQFPGNKLEWMGYISYSGITTYNPSLKSRISITRDTSKNQFFLQLNSVTTGDTSTYYCARSLARTTAMDYWGQGTSVTVSSAKTTPPSVYPLAPGSAAQTNSMVTLGCLVKGYFPEPVTVTWNSGSLSSGVHTFPAVLQSDLYTLSSSVTVPSSTWPSETVTCNVAHPASSTKVDKKIVPRDCGCKPCICTVPEVSSVFIFPPKPKDVLYITLEPKVTCVVVDISKDDPEVQFSWFVDDVEVHTAQTQPREEQFNSTFRSVSELPIMHQDWLNGKEFKCRVNSAAFPAPIEKTISKTKGRPKAPQVYTIPPPKEQMAKDKVSLTCMITDFFPEDITVEWQWNGQPAENYKNTQPIMDTDGSYFVYSKLNVQKSNWEAGNTFTCSVLHEGLKFHHTEKSLSHSPGK
# light: DIQMTQTTSSLSASLGDRVTISCRASQDISSYLNWYQQKPDGTIKLLIYYTSRLHSGVPSRFSGSGSGTDYSLTINNLEQEDIATYFCQQGNTLPYTFGGGTKLEIKRADAAPTVSIFPPSSEQLTSGGASVVCFLNNFYPKDINVKWKIDGSERQNGVLNSWTDQDSKDSTYSMSSTLTLTKDEYERHNSYTCEATHKTSTSPIVKSFNRNEC
# notes: Mouse IgG1 anti-human IL-6R antibody of mPM1H-mIgG1-mF3 and mPM1L-mk1; copies: 2 + 2
# B8: VH3/L(WT)-IgG1-F21 (antibody)
# heavy: B1 heavy with M254Y, A259P, L430M
# light: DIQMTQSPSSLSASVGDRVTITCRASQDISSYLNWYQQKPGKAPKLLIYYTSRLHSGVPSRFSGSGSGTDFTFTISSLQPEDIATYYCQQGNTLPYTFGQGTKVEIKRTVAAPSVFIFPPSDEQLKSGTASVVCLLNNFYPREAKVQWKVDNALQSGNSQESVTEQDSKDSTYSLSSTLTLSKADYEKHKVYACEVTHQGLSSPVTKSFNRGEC
# notes: Measured with light chain L(WT)-CK; result sentences name it Fv4-IgG1-F21; also called Fv4-IgG1-F21; copies: 2 + 2
# B9: VH3/L(WT)-IgG1-F157 (antibody)
# heavy: B1 heavy
# light: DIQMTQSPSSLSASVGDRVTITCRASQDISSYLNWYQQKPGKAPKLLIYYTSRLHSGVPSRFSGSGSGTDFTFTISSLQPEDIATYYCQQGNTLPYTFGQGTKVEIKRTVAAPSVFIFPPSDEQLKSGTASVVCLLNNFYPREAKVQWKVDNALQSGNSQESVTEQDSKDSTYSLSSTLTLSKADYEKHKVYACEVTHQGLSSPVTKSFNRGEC
# notes: also called Fv4-IgG1-F157 (name in result sentence); copies: 2 + 2
# Columns and labels:
# human FcRn [1] = target: T1, human FcRn (human, UniProt P55899 24-290; P61769 21-119, limits assumed); experiment: SPR (Biacore), antibody held on immobilised human FcRn, FcγR injected, pH 7.4, 25 C
# T1 construct: also called hFcRn
# human FcγRIa = target: T2, human FcγRIa (human, UniProt P12314 16-292, limits assumed); experiment: as above
# T2 construct: also called hFcgRI; hFcγRIa
# human FcγRIIb [2] = target: T3, human FcγRIIb (human, UniProt P31994 43-217, limits assumed); experiment: as above
# T3 construct: also called hFcgRIIb
# T3 sequence: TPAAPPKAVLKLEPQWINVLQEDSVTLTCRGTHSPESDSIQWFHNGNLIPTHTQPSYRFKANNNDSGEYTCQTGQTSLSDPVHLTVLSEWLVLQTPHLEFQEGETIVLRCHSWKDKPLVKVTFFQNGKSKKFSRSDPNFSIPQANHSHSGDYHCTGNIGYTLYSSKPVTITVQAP
# mouse FcγRI [3] = target: T4, mouse FcγRI (mouse, UniProt P26151 25-297); experiment: as above
# T4 sequence (looked up): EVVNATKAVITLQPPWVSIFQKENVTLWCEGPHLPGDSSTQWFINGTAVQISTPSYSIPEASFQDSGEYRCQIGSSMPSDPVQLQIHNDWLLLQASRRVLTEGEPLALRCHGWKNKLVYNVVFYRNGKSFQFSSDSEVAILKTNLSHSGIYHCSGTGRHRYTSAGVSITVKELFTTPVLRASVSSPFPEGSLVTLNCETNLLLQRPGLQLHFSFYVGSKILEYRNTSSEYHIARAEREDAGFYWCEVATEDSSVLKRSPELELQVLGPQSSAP
# mouse FcγRIIb [4] = target: T5, mouse FcγRIIb (mouse, UniProt P08101 30-210, limits assumed); experiment: as above
# T5 sequence (looked up): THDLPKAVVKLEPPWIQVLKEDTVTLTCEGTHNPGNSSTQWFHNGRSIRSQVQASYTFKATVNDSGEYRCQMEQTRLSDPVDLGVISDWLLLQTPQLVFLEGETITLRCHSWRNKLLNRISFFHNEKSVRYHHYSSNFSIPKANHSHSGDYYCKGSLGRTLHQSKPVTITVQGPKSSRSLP
# mouse FcγRIII [5] = target: T6, mouse FcγRIII (mouse, UniProt P08508 31-215); experiment: as above
# T6 sequence (looked up): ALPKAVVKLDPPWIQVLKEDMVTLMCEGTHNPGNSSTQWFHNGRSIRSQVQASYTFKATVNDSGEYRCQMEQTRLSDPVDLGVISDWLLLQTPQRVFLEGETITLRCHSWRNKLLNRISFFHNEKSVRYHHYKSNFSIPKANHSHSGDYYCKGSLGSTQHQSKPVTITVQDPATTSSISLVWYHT
# mouse FcγRI [6] = target: T4, mouse FcγRI; experiment: SPR (Biacore), antibody held on immobilised mouse FcRn, FcγR injected, pH 7.4, 25 C
# mouse FcγRIIb [7] = target: T5, mouse FcγRIIb; experiment: as above
# mouse FcγRIII [8] = target: T6, mouse FcγRIII; experiment: as above
# human FcγRIIa(H) = target: T7, human FcγRIIa(H) (human, UniProt P12318 36-217); experiment: Biacore T100, Protein A capture, 25 C; against IgG1 (IL6R-G1d)
# T7 construct: also called hFcgRIIa(H); FcγRIIa H type
# T7 sequence: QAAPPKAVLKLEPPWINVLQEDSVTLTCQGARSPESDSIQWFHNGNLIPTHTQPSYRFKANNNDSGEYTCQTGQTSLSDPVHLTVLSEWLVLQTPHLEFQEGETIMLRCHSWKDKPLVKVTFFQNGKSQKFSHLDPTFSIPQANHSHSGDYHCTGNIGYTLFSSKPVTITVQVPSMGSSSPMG
# human FcγRIIb [9] = target: T3, human FcγRIIb; experiment: as above
# human FcγRIIa(R) = target: T8, human FcγRIIa(R) (human, UniProt P12318 36-217); experiment: Biacore T100, Protein A capture, 25 C; against IgG1 (IL6R-G1d); the Japanese text says improved 522-fold
# T8 construct: also called hFcgRIIa(R); FcγRIIa R type
# T8 chain: T7 sequence with H133R
# human FcRn [10] = target: T1, human FcRn; experiment: Biacore, human FcRn, pH 7.0 (Table 20 not given)
# human FcγRIIb [11] = target: T3, human FcγRIIb; experiment: Biacore T100, Protein L capture, FcγR injected, pH 7.4, 25 C (Table 19 not given)
# [12] = target: T9, soluble human IL-6 receptor (human, UniProt P08887 20-357); experiment: summary of the Biacore result of Reference Example 7, told in Reference Example 12
# T9 construct: The stated range 1-357 is that of the expressed construct; also called hsIL-6R
# T9 sequence: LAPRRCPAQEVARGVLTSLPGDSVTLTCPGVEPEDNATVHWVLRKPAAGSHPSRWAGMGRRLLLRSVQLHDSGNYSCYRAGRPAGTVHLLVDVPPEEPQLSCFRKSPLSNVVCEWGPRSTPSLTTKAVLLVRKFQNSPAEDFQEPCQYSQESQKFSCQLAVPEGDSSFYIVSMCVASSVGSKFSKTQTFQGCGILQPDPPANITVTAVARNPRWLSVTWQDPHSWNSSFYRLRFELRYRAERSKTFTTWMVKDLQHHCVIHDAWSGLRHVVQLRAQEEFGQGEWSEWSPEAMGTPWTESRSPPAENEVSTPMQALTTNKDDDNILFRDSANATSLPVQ
# human FcRn [13] = target: T1, human FcRn; experiment: Biacore, Protein L capture, human FcRn injected, pH 7.0 (Table 6 not given)
# T1 sequence (P55899 24-290 limits assumed, chain 1 of 2): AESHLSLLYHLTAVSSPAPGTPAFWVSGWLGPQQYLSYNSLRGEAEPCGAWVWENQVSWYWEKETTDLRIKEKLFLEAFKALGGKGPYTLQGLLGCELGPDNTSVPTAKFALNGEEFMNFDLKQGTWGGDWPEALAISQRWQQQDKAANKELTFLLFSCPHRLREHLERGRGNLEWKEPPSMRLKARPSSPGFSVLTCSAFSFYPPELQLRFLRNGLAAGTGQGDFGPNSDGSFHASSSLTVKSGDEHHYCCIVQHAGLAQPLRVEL
# T1 sequence (P61769 21-119 limits assumed, chain 2 of 2): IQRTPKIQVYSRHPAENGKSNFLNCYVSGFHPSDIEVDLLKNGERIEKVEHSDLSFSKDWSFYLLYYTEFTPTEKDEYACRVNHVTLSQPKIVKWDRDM
# T2 sequence (P12314 16-292 limits assumed): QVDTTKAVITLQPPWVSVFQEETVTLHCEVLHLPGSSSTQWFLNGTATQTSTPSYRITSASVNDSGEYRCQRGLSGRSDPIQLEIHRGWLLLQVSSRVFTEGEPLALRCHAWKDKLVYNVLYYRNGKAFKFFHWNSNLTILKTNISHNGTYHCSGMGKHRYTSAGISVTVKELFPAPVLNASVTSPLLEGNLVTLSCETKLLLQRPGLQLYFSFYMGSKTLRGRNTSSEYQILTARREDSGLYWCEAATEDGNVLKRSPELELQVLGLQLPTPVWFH
binder,measurement,setting,value
B1,binding result,human FcRn [1],binds
same,binding result,human FcγRIa,binds
same,binding result,human FcγRIIb [2],binds
same,binding result,mouse FcγRI [3],binds
same,binding result,mouse FcγRIIb [4],binds
same,binding result,mouse FcγRIII [5],binds
B2,binding result,mouse FcγRI [6],binds
same,binding result,mouse FcγRIIb [7],binds
same,binding result,mouse FcγRIII [8],binds
B3,relative KD (KD of IgG1 divided by KD of the variant),human FcγRIIa(H),0.51 fold
same,relative KD (KD of IgG1 divided by KD of the variant),human FcγRIIb [9],408 fold
same,relative KD (KD of IgG1 divided by KD of the variant),human FcγRIIa(R),522 fold
B4,binding result,human FcRn [10],binds
same,binding result,human FcγRIIb [11],binds
B5,Ca-dependence of binding (fold),[12],≥ 100 fold
B6,Ca-dependence of binding (fold),[12],≥ 100 fold
B7,binding result,mouse FcγRI [6],no binding
same,binding result,mouse FcγRIIb [7],binds
same,binding result,mouse FcγRIII [8],binds
B8,binding result,human FcRn [13],binds
B9,binding result,human FcRn [13],binds
